Laboratory results taken from the nanobody polyreactivity screen of Harvey et al. (2022).

Assay: yeast display, Sf9 membrane polyspecificity reagent, FACS + sequencing; frameworks hold sequencing errors
In short: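 Nanobodies came from a synthetic yeast display library in Saccharomyces cerevisiae BJ5465, induced with galactose for 36–48 hours and stained for 1 hour at 4 °C with 10% biotinylated, detergent-solubilized Sf9 membrane reagent. Cells were enriched on streptavidin microbeads and then FACS-sorted, with low and high (top ~1%) gates set on anti-HA fluorescence for expression and streptavidin fluorescence for reagent binding. Each polyreactivity label reflects the gate a clone came from. Genes were amplified by colony PCR, sequenced by MiSeq 2 × 250 and filtered by CDR length.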

Sequence | polyreactivity (PSR sort gate)
QVQLVESGGGLVQAGGSLRLSCAASGFIFAPYAMGWYRQAPGKERELVAAISWSGGSTYYADSVKGRFTISRDNAKNTVYLQMNSLKPEDTAVYYCAAAGYITRYDRYDYWGQGTQVTVSS | high polyreactivity
QVQLVESGGGLVQAGGSLRLSCAASGRIFAYYAMGWYRQAPGKERELVAGISKSGGRTYYADSVKGRFTISRDNAKNTVYLQMNSLKPEDTAVYYCAVESYRRYYYWGQGTQVTVSS | high polyreactivity
QVQLVESGGGLVQAGGSLRLSCAASGLTFYYYAMGWYRPAPGKERELVARISSGTSTYYADSVKGRFTISRDNAKNTVYLQMNSLKPEDTAVYYCNARRKLGSTHGPWGGLEYWGQGTQVTVSS | low polyreactivity
QVHLQERGGGLLQACGSQRLSCAASGSISEVQYMGWYRRAPGKEREFVAGIAPGATTYYADSVKCRFTISRDNAKNTVFLQMNSLNPEYTDVDYFEDRYVTETDHDYWGQGTQVTVCS | low polyreactivity
QGQLVESCGCLVQAGGSLRLSCAASGSTFVVYDMGWYRQAPGKERELVAAITWSGGSTYYADSVKGRFTISRDNAKNTVYLQMNSLKPEDTAVYYCNKVTWHQGHDYWGQGTQVTVSS | low polyreactivity
QVQLVESGGGLVQAGGSLRLSCAASGLTFKKYAMGWYRPAPGKERELVAAISSGSTTYYADSVKGRFTISRDNAKNTVYLQMNSLKPEDTAFYYCAARRKGTVASMGYWGQGTQVTVSS | high polyreactivity
QVQLVESGGGLVQAGGSLRLTCAASGNTFWDNAMRWYRQAPGKERELVAAIRWSTGSTHYADSVKGRFTISRDNAKNTVYLQMNSLKPEDTAVYDCAATDYYYYRDKYYGYVYWGQGTHVTVSS | low polyreactivity
QGQLVESGGGLVQAGGSLRLSCAASGSIFSVNTMGWYRQAPGKERELVATIRTGDSTNYADSVKGRFTISRDNAKNTVYLQMNSLKPEDTAVYYCAADWSSLNFDYWGQGTQVTVSS | low polyreactivity
QVQLVESGGGLVQAGGSLRLSCAASGFTFYRNAMGWYRQAPWKERELVATITRSGGSKYYADSVKGRFTISRDNAKNTVYLQMNSLKPEDTEVYYCNDAISGVLVHGNYWGQGTQVTVSS | low polyreactivity
QVQLVESGGGLVHAGGSLRLSCAAYGSIFNYYAMGWYRQAPGKERVFVADISGSGSSTYYADSVKGRFTISRDNAKNTFYLQKNSLKPEDTAVYYCNAEYYWGVGYYPYSDYGYWGQGTQVTVSS | low polyreactivity
QVQLVESGGGLVQAGGSLRLSCAASGFTFVPYAMGWYRPAPGKERELLAAIDFDDATTYYADSVKGRFTISRDNAKNTVYLQMNSLKPEDTAVYYCAAVYYRRSYQGGYEYWGQGTQVTVSS | high polyreactivity
QVQLLESGGGLVQAGGSLRLSCAASGSTFRSYAMGWYRQATGKERELVAAISGRGGNTYYADSVKGRFTISRDNAKNTVYLQMNSLKPEDTAVYYCARKTVYYGSDYWGQGTQVTVSS | high polyreactivity
QVQLVESGGGLVQAGGSLRLSCAASGFVWYTMGWYRQAPGKERELVADITYRGGSTYYADSVKGRFTISRDNAKNTVYLQMNSLKPEDTAVYYCAAKPHWYWRYEYWGQGTQVTVSS | high polyreactivity
QVQLVESGGGLVQAGCSLRISCAASGFTFGKYAMGLYRQAPGNERELVAAITQCGGSTYYADSVKGRFTISRDNAKNTVYLQMNSLKPEYTAVYYCAADRRRQYRPGGYWGQGTQVTVSS | high polyreactivity
QVQIVESGGGLVQAGGSLRLSCAASGSTFGSNAMGWYRQAPGKERELGAAISWTGGSTYYADSVKGRFTISRDNAKNTVYLQLNSLKPEDTAVYYCNKRIAESDTTVTYDYWGQGTQVNVSS | low polyreactivity
QFQLVESGGGLVQAGGSLRLSCAASGFIIEYNTMGWYRQAPGKERELVAAISFIGGRTYYADSVKGRFTISRDNAKNTVYLQMNSMKPEDNAVYYCKTRDGGYYCGARRVLYYYWGQGTQVTLSS | high polyreactivity

Sequence | polyreactivity (PSR sort gate)
QVQLVESGGGLVQAGGSLSLSCAASGRNFTIYAMGWYIQAPGKEREMVAGITRSGGRTYYADSVKGRFTISRDNAKNTVYLQMNSLKPEDTAVYYCNRVFYSGYRGQGHSYESWGQGTQVTVSS | high polyreactivity
QVQLVESVGGLVQAGGSLRLSCAASGSIFSPYAMGWYRQAPGKERELVAGISRDGSTYYADSVKGRFTISRDNAKNTVYLQMNSMKPEDTAVYYCAATEFRYFEGGAYFEGYYWGQGTQVTVSS | low polyreactivity
QVQIVESGGGLVQAGGSLRLSCAAYGSIFRLYAMGWYRQAPGKERDFVARIRWRGGSTNYPDSVKASFTISRDNAKNTVFVQMNSQKTVDTAVYYCAAKQGTVRAHTFVPWYDYWGQGTQVSVSS | high polyreactivity
QVQLVESGGGLVQAGGSLRLSCAASGSTFKSNAMGWYRQAPGKERELVAAINRSGAGTYYADSVKGRFTISRDNAKHTVYLQLNSLKPEDTAVYYCAAQSYSRRYDYWGQGTQVTVSS | high polyreactivity
QVQLVESGGGLVQAGGSLRLSCAASGSIFYAYGMGWYRQAPGKERELVAAISSRGGSTHYADSVKGRFTISRDNAKNTVYLQMNSLKPEDTAVYYCAARHAYPYRRGDFNYWGQGTQVTVSS | high polyreactivity
QVQLVESGGGLVQAGGSLRLSCAASGSILYVYAMGWYRQAPGKERELVAVITSGGSTNYADSVKGRFTISRDNAKNTVYLQMNSLKPEDTAVYYCAADPYSVYGGDYWGQGTQVTLSS | low polyreactivity
QVQLVESGGGLVQAGGSIRLSCAASGFIFYVYAMGRSRQAPGKERELVAAISGGGDSTYYADSVKGRFTTSRDNAKNTVYLQMNSLKPEDTAVYYCATRRYPEVVNGESGYWGQGTQVTVSS | low polyreactivity
QVQLVESGGGLVQAGGSLRLSCGASGSIFNKYAIGWYRQAPGKERELVAAISVSGTRTYYADSVKGRFTISRDNAKNTCYLQMNSLKPEDTAVYYCAATRLDSTGSMYYYWGQGTQVTVSS | high polyreactivity
QVQLVESGGGLVQAGGSLRLSCAASGRTFGYYAMGWYRQAPGKERELVAAITWIGGSTYADSVKGRFTISRDNAKNTVYLQMNSLKPEDTAVYYCAADPSVWSDYYYWGQGTQVTVSS | high polyreactivity
QVQLVESGGGLVQAGGSLRLSCAASGRIFHPYAMGWYRPAPGKERELVAAITNSGGITYADSVKGRFTISRDNAKNTVYLQMNSLKPEDTSVYYCNTATNRFHYKYRKPYDYWGQGTQVTVSS | low polyreactivity
QVQLVESWGGLVQAGGSLRLSCAASGRIIDRKAMGWYRQAPGKERELVAAISSSGSTNYADSVKGRFTFSRDNAKNTVYLQMISLKPEDTSVYYCAARWRSVLAAGTRPVSFDYWGQGTQVTVSS | low polyreactivity
QVQLVESGGGLVQAGGSLRLICAASGSTFYEYAMGWYRQAPGKERELVAAISSNGARTYYADSVKVRFTISRDNAKNTVYLQMISLKPEDTAVYYCALVYRYAHTKYDYWGQGTQVTVSS | high polyreactivity
QVQLVESGGGLVQAGGSLRLSCAASGATFWRYAMGWYRQAPGKERELVAAISTSGGSTRYADSVKGRFTISRDNAKNTVYLQMNSLKPEDTAVYYCNAQHLARMDYWGQGTQVTVSS | high polyreactivity
QVQLVESGGGLVQAGGSLRLSCAASGSIFGRYTMGWYRQAPGKERELVARIRSGGTTYYADSVKGRFTISRDNAKNTVYLQMNSLKPEDTAVYYCAAGRDARDYYSWGQGTQVTVSS | high polyreactivity
QVQLQESGGGLVQAGGSLRLSCAPSGSISRYYDMGWYRQAPGKEREYVAGISGGAITYYADSVKGRFTISRDNAKNTVYLQMNSLKPEDTAVYYCAADTCVYQYHSYWGQGTQVTVSS | low polyreactivity
QVQLVESGGGLVQAGGSLRLSCAASGRTFLVYARGWYRQAPGKERELVATIRASTGSTYADSVKGRFTISRDNAKNTVYLQMNSLKPEDTAVYYCAAQPRYRHQTYNYWGQGTQVTVSS | high polyreactivity
